Results: US6566077B1, “Peptide useful as a ligand” (Tecnogen S.C.p.A., priority 1995, dated 2003)
Values belong to the molecule of their own block, whether it stands above or below them. No end group written: not given here.

Tests used:
albumin = biological target: T1, albumin (Oryctolagus cuniculus, UniProt P49065); assay: Affinity chromatography of crude rabbit serum on a column of immobilized ligand: retention or carry-over of albumin; format: binding
T1 construct: tissue SIGMA R 9133; host or cells: crude rabbit serum
Protocol: (§1) In order to purify immunoglobulins, the column was equilibrated with a 25 mM BIS-TRIS buffer (SIGMA, Cat. B9754) pH 6.5, at a flow rate of 1 ml/min, while the eluent was monitored at 280 nm. One milliliter of crude rabbit serum (SIGMA Cat. No. R 9133) was then loaded on the column, and after elution of non retained material at the column void volume, the eluent was changed to 0.1 M acetic acid.
(§2) Material desorbed by such a treatment was collected and analyzed by electrophoretic analysis on a polyacrylamide gel.
(§3) The purification of rabbit immunoglobulins from crude serum by affinity chromatography is shown in FIG. 1 while the electrophoretic analysis of the collected fractions is shown in FIG. 2. […] Furthermore, in FIG. 2 are also shown the electrophoretic analyses corresponding to several rabbit immunoglobulins purifications obtained after equilibration of the affinity column with different buffers, namely 0.1 M ammonium acetate pH 5.7 (A), 0.1 M sodium phosphate pH 7.0 (B), or 0.1 M sodium phosphate pH 8.5 (C).
Indeed similar results were attained with other supports such as Protein-Pak (Waters, USA), Eupergit C30N (Sigma, USA) and Affi-Gel (Bio-Rad, USA).

rabbit immunoglobulins = assay: Affinity chromatography of crude rabbit serum on a column of immobilized peptide, with polyacrylamide gel electrophoresis of the fractions; format: binding
Protocol: The peptide of formula (H-L-Arg-L-Thr-L-Tyr-)4-Lys2-Lys-Gly-OH (5 mg) was dissolved in 5 ml of 0.1 M sodium bicarbonate buffer pH 9.0 and then added to 1.2 g of activated resin CH-Sepharose 4B (Pharmacia, Uppsala, Sweden Cat. No. 17-0490-01), which is a chromatographic support for affinity chromatography preactivated for the direct coupling to peptides and proteins. The suspension was shaken for 24 h and the coupling level was monitored by taking aliquots of the reaction mixture at different times and subsequent RP-HPLC analysis.
Approximately 90% of initial peptide resulted covalently linked to the resin after 24 h. The derivatized resin was washed with 50 ml of 1 M TRIS pH 9.0 and then packed on a glass column (100×6.6 mm I.D.).
as §1, §2, §3

[1] = biological target: albumin of crude rabbit serum (rabbit, UniProt P49065 25-608); assay: affinity chromatography of crude rabbit serum on the peptide immobilised on CH-Sepharose 4B; SDS-PAGE of fractions
albumin of crude rabbit serum, sequence (P49065 25-608 limits assumed): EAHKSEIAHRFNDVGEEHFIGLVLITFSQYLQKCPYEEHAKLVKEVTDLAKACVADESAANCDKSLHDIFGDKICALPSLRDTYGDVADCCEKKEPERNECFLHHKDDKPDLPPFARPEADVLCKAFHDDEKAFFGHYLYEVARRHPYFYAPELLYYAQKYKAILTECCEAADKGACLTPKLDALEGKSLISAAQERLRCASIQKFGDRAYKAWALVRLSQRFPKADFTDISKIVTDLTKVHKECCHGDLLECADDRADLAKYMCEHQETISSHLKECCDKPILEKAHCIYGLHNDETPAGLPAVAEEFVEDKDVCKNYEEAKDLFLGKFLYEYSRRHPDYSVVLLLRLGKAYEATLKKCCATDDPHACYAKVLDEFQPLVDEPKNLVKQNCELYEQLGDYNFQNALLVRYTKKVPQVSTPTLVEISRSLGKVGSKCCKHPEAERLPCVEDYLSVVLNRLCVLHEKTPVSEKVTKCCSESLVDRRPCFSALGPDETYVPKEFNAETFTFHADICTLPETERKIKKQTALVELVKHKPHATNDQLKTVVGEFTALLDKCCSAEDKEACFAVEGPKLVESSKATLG

T1 sequence (P49065 25-608): as the sequence (P49065 25-608 limits assumed) above

retention of albumin by the column (albumin; 1 ml crude rabbit serum, 25 mM BIS-TRIS pH 6.5, peptide on CH-Sepharose 4B): albumin was not retained
Molecule: (H-L-Arg-L-Thr-L-Tyr-)4-Lys2-Lys-Gly-OH (peptide H-Arg-Thr-Tyr; chain KKKG-OH; also: branched tetramer: four RTY arms on the alpha and epsilon amines of two Lys, which are attached to the alpha and epsilon amines of a central Lys followed by Gly)
column selectivity compared with immobilized protein A columns (albumin; same serum, columns of the same dimensions): superior to that of columns with immobilized protein A
purification of immunoglobulins from contaminants after equilibration with different buffers (rabbit immunoglobulins; 0.1 M ammonium acetate pH 5.7, 0.1 M sodium phosphate pH 7.0 or pH 8.5, desorbed with 0.1 M acetic acid): optimal purification of immunoglobulins from contaminants was achieved
retention of the immunoglobulin fraction from crude serum by the column (rabbit immunoglobulins; 1 ml crude rabbit serum, 25 mM BIS-TRIS pH 6.5, elution with 0.1 M acetic acid, peptide on CH-Sepharose 4B): able to retain the immunoglobulin fraction from the crude serum
purification capability of the column (rabbit immunoglobulins; immunoglobulins purified from 0.5 ml, 1 ml and 1.5 ml of serum): remarkable purification capability

Molecule: protein A: protein obtained from Staphylococcus aureus, binds specifically to the constant portion of immunoglobulins; comparator affinity ligand [reference compound]
albumin in the purified fractions (albumin; same serum, immobilized protein A column of the same dimensions): always comprising traces of albumin

binding result [1]: no binding
B1: (H-L-Arg-L-Thr-L-Tyr-)4-Lys2-Lys-Gly-OH (peptide)
peptide: H-Arg-Thr-Tyr
chain: KKKG-OH
modifications: also: branched tetramer: four RTY arms on the alpha and epsilon amines of two Lys, which are attached to the alpha and epsilon amines of a central Lys followed by Gly
notes: Synthetic branched tetramer; also called (H2N-Arg-Thr-Tyr-CO)4-Lys2Lys-Gly-OH; tetrameric tripeptide (H-L-Arg-L-Thr-L-Tyr-)4-Lys2-Lys-COOH
